# Laboratory results published in publication PMC5913336, “True equilibrium measurement of transcription factor-DNA binding affinities using automated polarization microscopy”.
# T1: Bicoid DBD-GST (Bcd) (UniProt P09081 83-170)
# T1 sequence: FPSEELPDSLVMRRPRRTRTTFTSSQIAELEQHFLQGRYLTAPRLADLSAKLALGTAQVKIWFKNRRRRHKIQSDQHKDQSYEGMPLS
# T2: Bcd homeodomain (Drosophila melanogaster, UniProt P09081-2 77-166)
# T2 sequence: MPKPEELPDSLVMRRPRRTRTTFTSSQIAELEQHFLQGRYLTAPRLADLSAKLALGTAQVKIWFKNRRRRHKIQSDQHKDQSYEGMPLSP
# B1: Bcd competitor 12 (T4A) (dsDNA)
# DNA 1: TCGACGGAAATCCCTA
# DNA 2: TAGGGATTTCGGTCGA
# B2: Bcd oligo 5 (dsDNA)
# DNA 1: TCGACTGTAATCCCTA
# DNA 2: TAGGGATTACAGTCGA
# B3: Bcd consensus (dsDNA)
# DNA 1: TCGACGGTAATCCCTA
# DNA 2: TAGGGATTACCGTCGA
# B4: Bcd oligo 6 (dsDNA)
# DNA 1: TCGACAGTAATCCCTA
# DNA 2: TAGGGATTACTGTCGA
# B5: Bcd oligo 26 (dsDNA)
# DNA 1: TCGACGGTAATCTCTA
# DNA 2: TAGAGATTACCGTCGA
# B6: Bcd oligo 4 (dsDNA)
# DNA 1: TCGACCGTAATCCCTA
# DNA 2: TAGGGATTACGGTCGA
# B7: Bcd oligo 13 (dsDNA)
# DNA 1: TCGACGGTCATCCCTA
# DNA 2: TAGGGATGACCGTCGA
# B8: Bcd oligo 17 (dsDNA)
# DNA 1: TCGACGGTAGTCCCTA
# DNA 2: TAGGGACTACCGTCGA
# B9: Bcd oligo 12 (dsDNA)
# DNA 1: TCGACGGAAATCCCTA
# DNA 2: TAGGGATTTCCGTCGA
# B10: Bcd oligo 30 (dsDNA)
# DNA 1: TCGACGGTAATCCATA
# DNA 2: TATGGATTACCGTCGA
# B11: Bcd oligo 10 (dsDNA)
# DNA 1: TCGACGGCAATCCCTA
# DNA 2: TAGGGATTGCCGTCGA
# B12: Bcd oligo 31 (dsDNA)
# DNA 1: TCGACGGTAATCCCCA
# DNA 2: TGGGGATTACCGTCGA
# B13: Bcd oligo 32 (dsDNA)
# DNA 1: TCGACGGTAATCCCGA
# DNA 2: TCGGGATTACCGTCGA
# B14: Bcd oligo 23 (dsDNA)
# DNA 1: TCGACGGTAATTCCTA
# DNA 2: TAGGAATTACCGTCGA
# B15: Bcd oligo 11 (dsDNA)
# DNA 1: TCGACGGGAATCCCTA
# DNA 2: TAGGGATTCCCGTCGA
# B16: Bcd oligo 1 (dsDNA)
# DNA 1: TCGAGGGTAATCCCTA
# DNA 2: TAGGGATTACCCTCGA
# B17: Bcd oligo 33 (dsDNA)
# DNA 1: TCGACGGTAATCCCAA
# DNA 2: TTGGGATTACCGTCGA
# B18: Bcd oligo 28 (dsDNA)
# DNA 1: TCGACGGTAATCCGTA
# DNA 2: TACGGATTACCGTCGA
# B19: Bcd oligo 9 (dsDNA)
# DNA 1: TCGACGATAATCCCTA
# DNA 2: TAGGGATTATCGTCGA
# B20: Bcd oligo 8 (dsDNA)
# DNA 1: TCGACGTTAATCCCTA
# DNA 2: TAGGGATTAACGTCGA
# B21: Bcd oligo 14 (dsDNA)
# DNA 1: TCGACGGTGATCCCTA
# DNA 2: TAGGGATCACCGTCGA
# B22: Bcd oligo 21 (dsDNA)
# DNA 1: TCGACGGTAAACCCTA
# DNA 2: TAGGGTTTACCGTCGA
# B23: Bcd oligo 15 (dsDNA)
# DNA 1: TCGACGGTTATCCCTA
# DNA 2: TAGGGATAACCGTCGA
# B24: Bcd oligo 29 (dsDNA)
# DNA 1: TCGACGGTAATCCTTA
# DNA 2: TAAGGATTACCGTCGA
# B25: Bcd oligo 27 (dsDNA)
# DNA 1: TCGACGGTAATCACTA
# DNA 2: TAGTGATTACCGTCGA
# B26: Bcd oligo 7 (dsDNA)
# DNA 1: TCGACGCTAATCCCTA
# DNA 2: TAGGGATTAGCGTCGA
# B27: Bcd oligo 25 (dsDNA)
# DNA 1: TCGACGGTAATCGCTA
# DNA 2: TAGCGATTACCGTCGA
# B28: Bcd oligo 19 (dsDNA)
# DNA 1: TCGACGGTAACCCCTA
# DNA 2: TAGGGGTTACCGTCGA
# B29: Bcd oligo 24 (dsDNA)
# DNA 1: TCGACGGTAATACCTA
# DNA 2: TAGGTATTACCGTCGA
# B30: Bcd oligo 22 (dsDNA)
# DNA 1: TCGACGGTAATGCCTA
# DNA 2: TAGGCATTACCGTCGA
# B31: Bcd oligo 16 (dsDNA)
# DNA 1: TCGACGGTACTCCCTA
# DNA 2: TAGGGAGTACCGTCGA
# B32: Bcd oligo 3 (dsDNA)
# DNA 1: TCGAAGGTAATCCCTA
# DNA 2: TAGGGATTACCTTCGA
# B33: Bcd oligo 18 (dsDNA)
# DNA 1: TCGACGGTATTCCCTA
# DNA 2: TAGGGAATACCGTCGA
# B34: Bcd oligo 20 (dsDNA)
# DNA 1: TCGACGGTAAGCCCTA
# DNA 2: TAGGGCTTACCGTCGA
# B35: Bcd oligo 2 (dsDNA)
# DNA 1: TCGATGGTAATCCCTA
# DNA 2: TAGGGATTACCATCGA
# B36: Bcd competitor 8 (G3T) (dsDNA)
# DNA 1: TCGACGTTAATCCCTA
# DNA 2: TAGGGATTAAGGTCGA
# B37: Bcd competitor 11 (T4G) (dsDNA)
# DNA 1: TCGACGGGAATCCCTA
# DNA 2: TAGGGATTCCGGTCGA
# B38: Bcd EMSA 16-mer (dsDNA)
# DNA 1: TCGACCGTAATCCCTA
# DNA 2: TAGGGATTACGGTCGA
# B39: Bcd consensus CGGTAATCCCT (dsDNA)
# DNA 1: TCGACGGTAATCCCTA
# DNA 2: TAGGGATTACCGTCGA
# B40: Bcd competitor 9 (G3A) (dsDNA)
# DNA 1: TCGACGATAATCCCTA
# DNA 2: TAGGGATTATGGTCGA
# B41: Bcd competitor 10 (T4C) (dsDNA)
# DNA 1: TCGACGGCAATCCCTA
# DNA 2: TAGGGATTGCGGTCGA
# Target: T1, Bicoid DBD-GST (Bcd)
# Assay: competitive fluorescence anisotropy (HiP-FA); mean of replicates 13.103, 12.6865; HiP-FA: 33 mM phosphate pH 7.0, 90 mM NaCl, 0.01% Tween 20, 0.1 mM DTT, 0.5% agarose; conventional titration and EMSA: 20 mM Tris-acetate pH 7.0, 50 nM (sic) NaCl, 0.01% Tween-20, 0.1 mM DTT
# Conditions: protein: recombinant; tags: N-terminal GST; blunt, G:G mismatch at position 6
row,Molecule,Kd [nM]
1,B1,12.9

# Target: T2, Bcd homeodomain
# Assay: FP; 33 mM phosphate pH 7.0, 90 mM NaCl, 0.01% Tween 20, 0.1 mM DTT, 0.5% agarose; room temperature
# Conditions: tags: N-GST (pGEX-6P-1, kept)
row,Molecule,Kd [nM]
1,B2,6.66
2,B3,2.2
3,B4,5.86

# Same assay, conditions: tags: N-GST (pGEX-6P-1, kept); printed reverse strand differs at base 6 of strand 1 (G / C); complement of the forward strand used
row,Molecule,Kd [nM]
1,B5,7.79
2,B6,5.02
3,B7,64.3
4,B8,45.8
5,B9,12.9
6,B10,5.18
7,B11,20.6
8,B12,3.8
9,B13,5.08
10,B14,27.2
11,B15,21.4
12,B16,2.7
13,B17,4.71
14,B18,3.67
15,B19,3.8
16,B20,2.83

row,Molecule,Kd [nM]
1,B21,8.98
2,B22,48.8
3,B23,29.4
4,B24,4.03
5,B25,12.7
6,B26,2.79
7,B27,14.1
8,B28,94.1
9,B29,47.8
10,B30,92.1
11,B31,146
12,B32,3.76
13,B33,128
14,B34,18.8
15,B35,2.66

# Target: T1, Bicoid DBD-GST (Bcd)
# Assay: competitive fluorescence anisotropy (HiP-FA); mean of replicates 2.83, 2.8405; HiP-FA: 33 mM phosphate pH 7.0, 90 mM NaCl, 0.01% Tween 20, 0.1 mM DTT, 0.5% agarose; conventional titration and EMSA: 20 mM Tris-acetate pH 7.0, 50 nM (sic) NaCl, 0.01% Tween-20, 0.1 mM DTT
# Conditions: protein: recombinant; tags: N-terminal GST; blunt, G:G mismatch at position 6
row,Molecule,Kd [nM]
1,B36,2.83

# Target: T1, Bicoid DBD-GST (Bcd)
# Assay: competitive fluorescence anisotropy (HiP-FA); mean of replicates 20.981, 21.8595; HiP-FA: 33 mM phosphate pH 7.0, 90 mM NaCl, 0.01% Tween 20, 0.1 mM DTT, 0.5% agarose; conventional titration and EMSA: 20 mM Tris-acetate pH 7.0, 50 nM (sic) NaCl, 0.01% Tween-20, 0.1 mM DTT
# Conditions: protein: recombinant; tags: N-terminal GST; blunt, G:G mismatch at position 6
row,Molecule,Kd [nM]
1,B37,21.4

# Target: T1, Bicoid DBD-GST (Bcd)
# Assay: EMSA; direct titration; HiP-FA: 33 mM phosphate pH 7.0, 90 mM NaCl, 0.01% Tween 20, 0.1 mM DTT, 0.5% agarose; conventional titration and EMSA: 20 mM Tris-acetate pH 7.0, 50 nM (sic) NaCl, 0.01% Tween-20, 0.1 mM DTT
# Conditions: protein: recombinant; tags: N-terminal GST; label: Cy3; blunt
row,Molecule,Kd [nM]
1,B38,1.8 ± 0.2

# Target: T1, Bicoid DBD-GST (Bcd)
# Assay: competitive fluorescence anisotropy (HiP-FA); HiP-FA: 33 mM phosphate pH 7.0, 90 mM NaCl, 0.01% Tween 20, 0.1 mM DTT, 0.5% agarose; conventional titration and EMSA: 20 mM Tris-acetate pH 7.0, 50 nM (sic) NaCl, 0.01% Tween-20, 0.1 mM DTT
# Conditions: protein: recombinant; tags: N-terminal GST; blunt
row,Molecule,Kd [nM]
1,B39,2.2

# Target: T1, Bicoid DBD-GST (Bcd)
# Assay: competitive fluorescence anisotropy (HiP-FA); mean of replicates 3.766, 3.8365; HiP-FA: 33 mM phosphate pH 7.0, 90 mM NaCl, 0.01% Tween 20, 0.1 mM DTT, 0.5% agarose; conventional titration and EMSA: 20 mM Tris-acetate pH 7.0, 50 nM (sic) NaCl, 0.01% Tween-20, 0.1 mM DTT
# Conditions: protein: recombinant; tags: N-terminal GST; blunt, G:G mismatch at position 6
row,Molecule,Kd [nM]
1,B40,3.8

# Target: T1, Bicoid DBD-GST (Bcd)
# Assay: competitive fluorescence anisotropy (HiP-FA); mean of replicates 18.854, 22.285; HiP-FA: 33 mM phosphate pH 7.0, 90 mM NaCl, 0.01% Tween 20, 0.1 mM DTT, 0.5% agarose; conventional titration and EMSA: 20 mM Tris-acetate pH 7.0, 50 nM (sic) NaCl, 0.01% Tween-20, 0.1 mM DTT
# Conditions: protein: recombinant; tags: N-terminal GST; blunt, G:G mismatch at position 6
row,Molecule,Kd [nM]
1,B41,20.6

# Tested on: Caudal DBD-GST (Cad)
# Assay: competitive fluorescence anisotropy (conventional titration)
# Conditions: HiP-FA: 33 mM phosphate pH 7.0, 90 mM NaCl, 0.01% Tween 20, 0.1 mM DTT, 0.5% agarose; conventional titration and EMSA: 20 mM Tris-acetate pH 7.0, 50 nM …
row,Molecule,Kd [nM]
1,Cad consensus oligo,0.05

# Tested on: Ttk-F DBD-GST
# Assay: competitive fluorescence anisotropy (HiP-FA)
# Conditions: HiP-FA: 33 mM phosphate pH 7.0, 90 mM NaCl, 0.01% Tween 20, 0.1 mM DTT, 0.5% agarose; conventional titration and EMSA: 20 mM Tris-acetate pH 7.0, 50 nM …
row,Molecule,Kd [nM]
1,Ttk-F consensus oligo,48

# Tested on: Giant DBD-GST (Gt)
# Assay: competitive fluorescence anisotropy (HiP-FA)
# Conditions: HiP-FA: 33 mM phosphate pH 7.0, 90 mM NaCl, 0.01% Tween 20, 0.1 mM DTT, 0.5% agarose; conventional titration and EMSA: 20 mM Tris-acetate pH 7.0, 50 nM …
row,Molecule,Kd [nM]
1,Gt consensus oligo,0.9
